Data set [1] has as its system FAH 5.3 TALEN left (5') (synthetic construct). The experiment in a line: cell_activity. Conditions: TALEN pair with HDR oligo (HindIII) in RG-KO pig fibroblasts, 16 bp spacer.
Data set [2] has as its system FAH 5.3 TALEN right (3') (synthetic construct). The experiment in a line: cell_activity. The following applies: TALEN pair with HDR oligo (HindIII) in RG-KO pig fibroblasts, 16 bp spacer.

In data set [1], “TCAGGGGCAAGGAGACT (double strand) [FAH 5.3 TALEN 5' half-site]” showed an activity (% of colonies positive) of 5.3.

In data set [2], “GGTATGTCCCAGACC (double strand) [FAH 5.3 TALEN 3' half-site]” showed an activity (% of colonies positive) of 5.3.

These data come from patent US20190045761.
